For series [1], the target named is T1, human uPAR (Homo sapiens, UniProt Q03405).
T1 construct: made in house
In words: Ligand:uPAR interaction in vitro (binding affinity). As to conditions: binding affinity towards human uPAR. The source says: In table 2, the amino acids sequences of each peptid conjugate with the corresponding binding affinity towards human uPAR are shown. Residues in bold is important for the interaction with uPAR. A substitution of two of these important amino acids (Phe^3 and Trp^8) with Glu, results in a complete loss of affinity towards uPAR. […] Importantly, no reduction in affinity is caused by conjugation of DOTA chelator in the N-terminal, illustrated with identical IC50-value between the un-conjugated peptide AE105 and the conjugated form DOTA-AE105.

The nature of series [2]: Toxicity in HT-29 therapy study (body weight, kidney H&E, deaths). Particulars: mouse, in vivo. Format: in vivo, NMRI nude mice. The source says:
Results are presented as the mean±SEM, n=6 animals/group. B, H&E staining of kidney sections representing kidney epithelia (top) and glomerulus (Bottom) from each treatment group. […] One pair of kidneys from one animal/group was stained. Scale bar=25 μm, 40× zoom.
Three days after tumor cell inoculation (study day 0), 18 nude mice bearing the human colorectal carcinoma xenograft HT-29 in each flank were randomly divided into three groups consisting of 6 animals each. All animals in each group were first baseline PET/CT scanned with ^18F-FLT (day 0) before being dosed with 20 MBq of either ^177Lu-DOTA-AE105, ^177Lu-DOTA-AE105mut or vehicle. Subsequently, PET/CT scans of all mice in each group were repeated with ^18F-FLT on study day 1, 3 and 6. Second treatment dose (20 MBq) was administrated on day 7, followed by CT-scan day 8, 10 and 14 to measure tumor volumes using manual ROI drawing on the reconstructed images. On day 14, all animals were euthanized and tumors and kidneys were collected and kept for further analysis at −80° C.
uPAR ELISA on resected HT-29 tumors was done as described previously in detail. All results were performed as duplicate measurements. Expression of uPAR in formalin fixed and paraffin embedded tumor tissue was evaluated by immunohistochemical staining (FIG. 7) as previously published. A general histopathology examination was performed on H&E stained kidney tissue (one pair of kidneys from one animal from each treatment group) and performed by a trained pathologist (ODL).

Series [3] in a line: Biodistribution in Nude mice bearing HT-29 tumor xenograft (gamma-counter). Particulars: female, NMRI nude, mouse, in vivo, iv, total radioactivity. Format: in vivo, NMRI nude mice. As for the experimental part:
Mice were sacrificed at 0.5, 1.0, 2.0, 4.0 and 24.0 h after injection, and a panel of organs, including blood drawn from the heart, was collected, weighed, and analyzed for radioactive content. Mean percent injected dose per gram (% ID/g)±SEM from three mice at each point is presented. A. Chemical structure of ^177Lu-DOTA-AE105. B(top) Biodistribution of ^177Lu-DOTA-AE105 in selected organs/tissues between 0.5 and 24.0 h. B (bottom). […] HT-29 colorectal cancer cells were obtained from the American Type Culture Collection (Manassas, VA, USA) and culture media was obtained from Invitrogen Co. (Carlsbad, CA, USA). The cell line was cultured in Mc.Coy's standard medium supplemented with 10% (v/v) fetal bovine serum and 1% (v/v) penicillin/Streptomycin at 37° C. and 5% CO2. Xenografts of human HT-29 colorectal cancer cells was established by injection of 200 μl cells (1×10^8 cells/ml) suspended in 100 μl Matrigel (BD Biosciences, San Jose, CA, USA), subcutaneously in the left and right flank of female NMRI nude mice obtained from Taconic, under anesthesia by Hypnorm/doricum (Study day −3). All animal experiments were performed under a protocol approved by the Animal Research Committee of the Danish Ministry of Justice. Biodistribution study was performed as previously described. In brief, Nude mice bearing HT-29 xenografts were injected in the tail-vein with 2-3 MBq of ^177Lu-DOTA-AE105 or ^177Lu-DOTA-AE105mut. All mice were euthanized after 0.5, 1, 2, 4 and 24 hr post tracer injection. Blood, tumor and major organs were collected (wet-weight) and the radioactivity was measured using a γ-counter from Perkin Elmer, MA, USA (N=4 mice/group).

Residues, ends and D or L forms follow the SMILES beside them.

T1 sequence (Q03405 23-305): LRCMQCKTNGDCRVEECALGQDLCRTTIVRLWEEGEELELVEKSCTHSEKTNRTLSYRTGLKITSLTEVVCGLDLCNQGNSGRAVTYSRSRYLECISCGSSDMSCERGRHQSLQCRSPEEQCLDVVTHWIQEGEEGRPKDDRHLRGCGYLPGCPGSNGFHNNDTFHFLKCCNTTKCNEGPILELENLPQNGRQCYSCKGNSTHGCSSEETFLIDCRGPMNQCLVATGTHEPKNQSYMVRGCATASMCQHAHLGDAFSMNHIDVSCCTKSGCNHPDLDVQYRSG

In general, IC50 refers to the midpoint of a concentration-inhibition curve. Read a low IC50 as higher potency. As to `CC(C)C[C@H](NC(=O)[C@H](Cc1ccc(O)cc1)NC(=O)[C@@H](CCCNC(=N)N)NC(=O)[C@@H](CO)NC(=O)[C@H](Cc1ccccc1)NC(=O)[C@H](CC1CCCCC1)NC(=O)[C@@H](N)CC(=O)O)C(=O)N[C@@H](Cc1c[nH]c2ccccc12)C(=O)N[C@@H](CO)C(N)=O` [AE105, Asp^1-Cha^2-Phe^3-ser^4-arg^5-Tyr^6-Leu^7-Trp^8-Ser^9], the IC50 in series [1] is 6.7 nM.
`CC(C)C[C@H](NC(=O)[C@H](Cc1ccc(O)cc1)NC(=O)[C@@H](CCCNC(=N)N)NC(=O)[C@@H](CO)NC(=O)[C@H](CCC(=O)O)NC(=O)[C@H](CC1CCCCC1)NC(=O)[C@H](CC(=O)O)NC(=O)CN1CCN(CC(=O)O)CCN(CC(=O)O)CCN(CC(=O)O)CC1)C(=O)N[C@@H](CCC(=O)O)C(=O)N[C@@H](CO)C(N)=O` [DOTA-AE105mut, DOTA-Asp-Cha-Glu-(D)Ser-(D)Arg-Tyr-Leu-Glu-Ser-CONH2] (HELM PEPTIDE1{[O=C(O)CN1CCN(CC(=O)O)CCN(CC(=O)[*:2])CCN(CC(=O)O)CC1].D.[Cha].E.[dS].[dR].Y.L.E.S.[am]}$$$$V2.0) gave an IC50 in series [1] of more than 10 nM.
Usually tissue uptake stands for the percentage of the injected dose found per gram of tissue. With `CC(C)C[C@H](NC(=O)[C@H](Cc1ccc(O)cc1)NC(=O)[C@@H](CCCNC(=N)N)NC(=O)[C@@H](CO)NC(=O)[C@H](CCC(=O)O)NC(=O)[C@H](CC1CCCCC1)NC(=O)[C@H](CC(=O)O)NC(=O)CN1CCN(CC(=O)O)CCN(CC(=O)O)CCN(CC(=O)O)CC1)C(=O)N[C@@H](CCC(=O)O)C(=O)N[C@@H](CO)C(N)=O` [^177Lu-DOTA-AE105mut, metal not drawn, reference compound] (HELM PEPTIDE1{[O=C(O)CN1CCN(CC(=O)O)CCN(CC(=O)[*:2])CCN(CC(=O)O)CC1].D.[Cha].E.[dS].[dR].Y.L.E.S.[am]}$$$$V2.0), the “animal body weight between treatment groups” value in series [2] is “No significant differences in the mean body weights”. Also, in series [2], the “kidney histopathology (H&E staining)” value was “no gross macroscopic morphological changes”. The tissue uptake at 0.5 h in series [3] (% ID/g Blood) was 0.959 %ID/g; in series [3] (% ID/g Bone), 0.39 %ID/g; in series [3] (% ID/g Brain), 0.081 %ID/g; in series [3] (% ID/g Heart) it was 0.278 %ID/g; in series [3] (% ID/g Intestine), 0.2 %ID/g; in series [3] (% ID/g Kidney) it was 3.01 %ID/g. For the same compound, the tissue uptake at 0.5 h came to 0.228 %ID/g in series [3] (% ID/g Liver), 0.235 %ID/g in series [3] (% ID/g Muscle), 0.163 %ID/g in series [3] (% ID/g Spleen) and 0.708 %ID/g in series [3] (% ID/g Tumor).

The values are drawn from US12589171B2, “177-Lu labeled peptide for site-specific uPAR-targeting” (priority 2012, dated 2026).
